Assays:
[1] = molecular target: HAdV-C5 hexon protein (HAdV-C5) (UniProt P04133); assay: SPR
[2] = molecular target: purified hexon protein from ChAdOx1 (chimpanzee adenovirus Y25 (ChAdOx1)); assay: SPR

HAdV-C5 hexon protein (HAdV-C5), sequence (P04133 whole entry): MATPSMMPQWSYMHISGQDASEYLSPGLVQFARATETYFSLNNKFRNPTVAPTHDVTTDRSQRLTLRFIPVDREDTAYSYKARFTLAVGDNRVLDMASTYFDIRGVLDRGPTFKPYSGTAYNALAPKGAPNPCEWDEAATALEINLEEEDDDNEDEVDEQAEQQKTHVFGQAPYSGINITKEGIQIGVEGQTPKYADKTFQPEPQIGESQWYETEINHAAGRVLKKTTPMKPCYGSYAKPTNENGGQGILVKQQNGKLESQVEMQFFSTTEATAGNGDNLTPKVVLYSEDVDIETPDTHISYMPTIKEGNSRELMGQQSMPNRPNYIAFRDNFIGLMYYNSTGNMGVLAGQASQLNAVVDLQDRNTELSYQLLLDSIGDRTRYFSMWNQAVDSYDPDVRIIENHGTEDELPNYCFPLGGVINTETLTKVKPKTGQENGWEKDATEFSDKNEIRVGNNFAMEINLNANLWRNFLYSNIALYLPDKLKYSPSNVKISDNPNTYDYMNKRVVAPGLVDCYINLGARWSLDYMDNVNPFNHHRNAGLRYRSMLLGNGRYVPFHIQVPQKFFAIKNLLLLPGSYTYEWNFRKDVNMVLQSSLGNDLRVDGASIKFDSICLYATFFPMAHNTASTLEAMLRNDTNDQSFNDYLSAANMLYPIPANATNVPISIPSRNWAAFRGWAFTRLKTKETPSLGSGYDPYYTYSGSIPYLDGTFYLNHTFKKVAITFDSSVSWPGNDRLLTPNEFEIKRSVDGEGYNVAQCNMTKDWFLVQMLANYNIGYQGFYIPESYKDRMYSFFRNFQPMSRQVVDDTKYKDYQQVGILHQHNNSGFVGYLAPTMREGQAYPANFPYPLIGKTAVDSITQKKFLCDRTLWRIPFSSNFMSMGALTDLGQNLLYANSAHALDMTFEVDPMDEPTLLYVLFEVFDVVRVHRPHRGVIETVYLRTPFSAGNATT

## platelet factor 4 (PF4) (natural protein)
[1]
  Kd: 767 nM
[2]
  Kd: 296 nM
